Residue numbers refer to the chain shown, from its start. Read-outs that look alike come from different tables or passages of the source.
B1: huSP34.3.7 Fab-HF (Fab, V domains shown)
VH: EVQLVESGGGLVQPGGSLRLSCAASGFTFNTYAMNWVRQAPGKGLEWVGRIRSKYNNYATYYADSVKGRFTISRDDSKNSLYLQMNSLRTEDTAVYYCVRHGNFGHSYVSWFAYWGQGTLVTVSS
VL: QAVVTQEPSLTVSPGGTVTLTCRSSTGAVTTGHYANWVQQKPGQAPRGLIGGTNKRAPGVPARFSGSLLGGKAALTISGAQPEDEAEYYCALWYSNLWVFGGGTKLTVL
notes: also called HC3+LC7
B2: huSP34.34.6 Fab-HF (Fab, V domains shown)
VH: B1 VH with D64A, R89K, V95M
VL: B1 VL with E7P, R23G, N54S, K55N, L69S, N96A, L97R
notes: also called HC34+LC6
B3: huSP34.35.15 Fab-HF (Fab, V domains shown)
VH: B1 VH with T31D, I51T, D64A, R89K, V95M
VL: B1 VL with E7P, R23G, L69S, N96A, L97R
notes: also called HC35+LC15
B4: huSP34.9.6 Fab-HF (Fab, V domains shown)
VH: B1 VH with N30S, T31D, I51T, N57S, D64A, R89K, H106N, Y114V
VL: B1 VL with E7P, R23G, N54S, K55N, L69S, N96A, L97R
notes: also called HC9+LC6
B5: huSP34.5.6 Fab-HF (Fab, V domains shown)
VH: B1 VH with N30S, D76N, S80T, T90A, Y114V
VL: B1 VL with E7P, R23G, N54S, K55N, L69S, N96A, L97R
notes: also called HC5+LC6
B6: huSP34.35.6 Fab-HF (Fab, V domains shown)
VH: B1 VH with T31D, I51T, D64A, R89K, V95M
VL: B1 VL with E7P, R23G, N54S, K55N, L69S, N96A, L97R
notes: also called HC35+LC6
B7: huSP34.7.6 Fab-HF (Fab, V domains shown)
VH: B1 VH with N30S, T31D, I51T, D64A, R89K, H106N, Y114V
VL: B1 VL with E7P, R23G, N54S, K55N, L69S, N96A, L97R
notes: also called HC7+LC6
B8: huSP34.6.6 Fab-HF (Fab, V domains shown)
VH: B1 VH with N30S, D76N, S80T, T90A, V95M, H106N, Y114V
VL: B1 VL with E7P, R23G, N54S, K55N, L69S, N96A, L97R
notes: also called HC6+LC6
B9: huSP34.10.6 Fab-HF (Fab, V domains shown)
VH: B1 VH with N30S, T31D, I51T, N57S, D64A, R89K, Y114V
VL: B1 VL with E7P, R23G, N54S, K55N, L69S, N96A, L97R
notes: also called HC10+LC6
B10: huSP34.34.18 Fab-H (Fab, V domains shown)
VH: B1 VH with D64A, R89K, V95M
VL: B1 VL with E7P, R23G, N54S, K55N, G59W, V60T, L69S, N96A, L97R
notes: also called HC34+LC18
B11: huSP34.3.9 Fab-HF (Fab, V domains shown)
VH: B1 VH
VL: B1 VL with E7P, R23G, L69S
notes: also called HC3+LC9
B12: huSP34.9.5 Fab-HF (Fab, V domains shown)
VH: B1 VH with N30S, T31D, I51T, N57S, D64A, R89K, H106N, Y114V
VL: B1 VL with R23G, N54S, K55N, G59W, V60T, I77L, N96A, L97R
notes: also called HC9+LC5
B13: huSP34.3.19 Fab-HF (Fab, V domains shown)
VH: B1 VH
VL: B1 VL with R23G, N96A, L97R
notes: also called HC3+LC19
B14: huSP34.34.12 Fab-HF (Fab, V domains shown)
VH: B1 VH with D64A, R89K, V95M
VL: B1 VL with E7P, R23G, G59W, V60T, L69S, L97R
notes: also called HC34+LC12
B15: huSP34.36.10 Fab-HF (Fab, V domains shown)
VH: B1 VH with T31D, D64A, R89K, V95M
VL: B1 VL with E7P, R23G, L69S, L97R
notes: also called HC36+LC10
B16: huSP34.11.9 Fab-HF (Fab, V domains shown)
VH: B1 VH with N30S, D64A
VL: B1 VL with E7P, R23G, L69S
notes: also called HC11+LC9
B17: huSP34.35.10 Fab-HF (Fab, V domains shown)
VH: B1 VH with T31D, I51T, D64A, R89K, V95M
VL: B1 VL with E7P, R23G, L69S, L97R
notes: also called HC35+LC10
B18: huSP34.34.16 Fab-HF (Fab, V domains shown)
VH: B1 VH with D64A, R89K, V95M
VL: B1 VL with E7P, R23G, N54S, K55N, G59W, V60T, L69S, L97R
notes: also called HC34+LC16
B19: huSP34.34.14 Fab-HF (Fab, V domains shown)
VH: B1 VH with D64A, R89K, V95M
VL: B1 VL with E7P, R23G, N54S, K55N, L69S, L97R
notes: also called HC34+LC14

Legend:
Assay in all cases: BLI (Octet), CD3 on SA sensor, Fab analyte;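 as to result: biolayer interferometry with biotinylated CD3 epsilon:delta captured on streptavidin sensors, Fab analyte at several concentrations up to 300 nM, 100 s association then 300 s dissociation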
[1] = target: T1, biotinylated CD3 epsilon:delta heterodimer protein (Amsbio AMS.CDD-H52WO) (Homo sapiens (Human), UniProt P07766 23-126; P04234 22-105)
T1 construct: also called CD3 heterodimer
Procedure: (§1) The CD3 binding kinetics of the purified huSP34 Fabs were determined using OctetRed384 (Pall ForteBio, CA) biolayer interferometry (BLI). […] Streptavidin (SA) coated biosensors tips (Pall ForteBio, CA) were used to capture biotinylated CD3 epsilon: delta heterodimer and typical immobilization levels captured on the SA sensors were 1 nm which approximately translates to 300 ng/ml of captured protein. For kinetic measurements biosensors were first pre-wetted with assay buffer for 10 minutes to remove protective sucrose coating followed by the recommended regeneration conditions for standardization of the biosensor surface for the experiment. In order to load the biosensors with antigen, 300 ng/ml of biotinylated CD3 epsilon: delta heterodimer protein (Amsbio AMS.CDD-H52WO) was immobilized on the SA sensor for 900 seconds. The CD3 loaded biosensors were then blocked with 20 ug/ml biocytin (sigma) for 200 seconds and then dipped into assay buffer containing wells for 200 seconds to remove any non-specific protein or unbound CD3 heterodimer.
(§2) CD3 loaded and biocytin blocked biosensors were then transferred into fresh assay buffer for 200 seconds to collect a baseline read. Kinetic measurements for anti-CD3 Fab and bispecific antibody binding were performed by dipping the CD3-coated biosensors into wells containing multiple concentrations of Fab or Ab (0-300 nM) for 100 seconds followed by a 300 second dissociation time by transferring the biosensors into assay buffer containing wells. The CD3 loaded sensors were then regenerated for the next kinetic measurement. Biosensors were generated by removing bound Fabs or Ab from immobilized CD3 on SA biosensors. Regeneration conditions used consisted of 3 cycles of 5 seconds of dipping the biosensors in Regeneration Buffer (10 mM Glycine HCl pH 1.5) followed by Assay Buffer (10 mM sodium phosphate pH 7.4, 140 mM Sodium Chloride, 0.005% Tween20 with 0.2% BSA).

[2] = target: T1, biotinylated CD3 epsilon:delta …; remark: listed apart in the source
Procedure: as §1, §2

[3] = target: T1, biotinylated CD3 epsilon:delta …; remark: listed apart in the source
Procedure: as §1, §2

Binder	Kd [2] [nM]	koff [2] [s⁻¹]	kon [2] [M⁻¹ s⁻¹]	other results
B1	–	–	–	Kd [1]: 5.6 nM; koff [1]: 0.00168 s⁻¹; kon [1]: 323000 M⁻¹ s⁻¹
B2	8	0.00357	449000	–
B3	303	0.17	560000	–
B4	–	–	–	Kd [3]: 289 nM; koff [3]: 0.169 s⁻¹; kon [3]: 582000 M⁻¹ s⁻¹
B5	–	–	–	Kd [3]: 268 nM; koff [3]: 0.0746 s⁻¹; kon [3]: 280000 M⁻¹ s⁻¹
B6	178	0.187	1.55e+06	–
B7	–	–	–	Kd [3]: 425 nM; koff [3]: 0.17 s⁻¹; kon [3]: 403000 M⁻¹ s⁻¹
B8	–	–	–	Kd [3]: 75 nM; koff [3]: 0.0292 s⁻¹; kon [3]: 464000 M⁻¹ s⁻¹
B9	–	–	–	Kd [3]: 314 nM; koff [3]: 0.157 s⁻¹
B10	87.1	0.0224	257000	–
B11	–	–	–	Kd [1]: 3.5 nM; koff [1]: 0.00221 s⁻¹; kon [1]: 632000 M⁻¹ s⁻¹
B12	–	–	–	binding result [3]: no binding (tested: 0-300 nM)
B13	9.9	0.00164	193000	–
B14	8.1	0.0014	189000	–
B15	5.8	0.00929	1.6e+06	–
B16	–	–	–	Kd [1]: 3.4 nM; koff [1]: 0.00284 s⁻¹; kon [1]: 898000 M⁻¹ s⁻¹
B17	224	0.0759	339000	–
B18	28.8	0.00599	208000	–
B19	3.9	0.00126	345000	–

Reference: patent publication US20230056252A1 (Gilead, published 2023)
